Results: PMC12102759 (2025)

B1: AXIN1 peptide 235-250 (Axin-1), 16-mer library wild type / PP2A B56 (PPP2R5A B56 domain, residues 1-486) (parent complex)
chain 1: SGYLPTLNEDEEWKAD
chain 2: not shown

Variants of: B1
Experiment: proteomic peptide phage display deep mutational scan (ProP-PD DMS): M13 P8 16-mer library selected against immobilised GST-tagged bait for four days (rounds), NGS of the eluted pools per day and pseudo-replica; bait immobilised on MaxiSorp plates (10 µg), library pre-cleared on GST, 2 h binding at 4 °C, five washes; one round per day, days 1-4; value from days 2 and 3
In the case of chain 1 G2K, the screen value is reported as 0.000562 average fractional NGS count over selection days 2 and 3 (reads of this peptide / all reads for the bait, averaged over ….
chain 1 G2V was tested, and the screen value was 0.000268 average fractional NGS count over selection days 2 and 3 (reads of this peptide / all reads for the bait, averaged over ….
In the case of chain 1 G2P, the screen value is reported as 0.0013 average fractional NGS count over selection days 2 and 3 (reads of this peptide / all reads for the bait, averaged over ….
chain 1 G2T was tested, and the screen value was 0.00134 average fractional NGS count over selection days 2 and 3 (reads of this peptide / all reads for the bait, averaged over ….
chain 1 T6P was tested, and the screen value was 0.000157 average fractional NGS count over selection days 2 and 3 (reads of this peptide / all reads for the bait, averaged over ….
chain 1 E11N was tested, and the screen value was 0.00018 average fractional NGS count over selection days 2 and 3 (reads of this peptide / all reads for the bait, averaged over ….
In the case of chain 1 E11W, the screen value is reported as 0.000117 average fractional NGS count over selection days 2 and 3 (reads of this peptide / all reads for the bait, averaged over ….
For chain 1 E11T, the screen value was 0.0139 average fractional NGS count over selection days 2 and 3 (reads of this peptide / all reads for the bait, averaged over ….
chain 1 E11M was tested, and the screen value was 0.00494 average fractional NGS count over selection days 2 and 3 (reads of this peptide / all reads for the bait, averaged over ….
With chain 1 E11H the screen value was 0.000134 average fractional NGS count over selection days 2 and 3 (reads of this peptide / all reads for the bait, averaged over ….
For chain 1 K14A, the screen value was 0.000829 average fractional NGS count over selection days 2 and 3 (reads of this peptide / all reads for the bait, averaged over ….
With chain 1 K14S the screen value was 0.000394 average fractional NGS count over selection days 2 and 3 (reads of this peptide / all reads for the bait, averaged over ….
In the case of chain 1 K14F, the screen value is reported as 0.00121 average fractional NGS count over selection days 2 and 3 (reads of this peptide / all reads for the bait, averaged over ….
chain 1 K14T was tested, and the screen value was 0.000943 average fractional NGS count over selection days 2 and 3 (reads of this peptide / all reads for the bait, averaged over ….
With chain 1 E12I the screen value was 0.00181 average fractional NGS count over selection days 2 and 3 (reads of this peptide / all reads for the bait, averaged over ….
For chain 1 E12Y, the screen value was 0.000809 average fractional NGS count over selection days 2 and 3 (reads of this peptide / all reads for the bait, averaged over ….
In the case of chain 1 E12M, the screen value is reported as 0.000888 average fractional NGS count over selection days 2 and 3 (reads of this peptide / all reads for the bait, averaged over ….
In the case of chain 1 E12S, the screen value is reported as 0.000153 average fractional NGS count over selection days 2 and 3 (reads of this peptide / all reads for the bait, averaged over ….
With chain 1 W13F the screen value was 0.000389 average fractional NGS count over selection days 2 and 3 (reads of this peptide / all reads for the bait, averaged over ….
In the case of chain 1 W13V, the screen value is reported as 0.000494 average fractional NGS count over selection days 2 and 3 (reads of this peptide / all reads for the bait, averaged over ….
chain 1 N8I was tested, and the screen value was 0.00188 average fractional NGS count over selection days 2 and 3 (reads of this peptide / all reads for the bait, averaged over ….
In the case of chain 1 N8V, the screen value is reported as 0.022 average fractional NGS count over selection days 2 and 3 (reads of this peptide / all reads for the bait, averaged over ….
With chain 1 N8Q the screen value was 0.00306 average fractional NGS count over selection days 2 and 3 (reads of this peptide / all reads for the bait, averaged over ….
In the case of chain 1 N8M, the screen value is reported as 0.000721 average fractional NGS count over selection days 2 and 3 (reads of this peptide / all reads for the bait, averaged over ….
For chain 1 N8L, the screen value was 0.000128 average fractional NGS count over selection days 2 and 3 (reads of this peptide / all reads for the bait, averaged over ….
For chain 1 D10W, the screen value was 0.0017 average fractional NGS count over selection days 2 and 3 (reads of this peptide / all reads for the bait, averaged over ….
chain 1 D10A was tested, and the screen value was 0.00348 average fractional NGS count over selection days 2 and 3 (reads of this peptide / all reads for the bait, averaged over ….
With chain 1 D10Q the screen value was 0.00101 average fractional NGS count over selection days 2 and 3 (reads of this peptide / all reads for the bait, averaged over ….
chain 1 D10N was tested, and the screen value was 0.000347 average fractional NGS count over selection days 2 and 3 (reads of this peptide / all reads for the bait, averaged over ….
chain 1 D10H was tested, and the screen value was 0.000355 average fractional NGS count over selection days 2 and 3 (reads of this peptide / all reads for the bait, averaged over ….
For chain 1 D10S, the screen value was 0.000583 average fractional NGS count over selection days 2 and 3 (reads of this peptide / all reads for the bait, averaged over ….
With chain 1 D10I the screen value was 0.00126 average fractional NGS count over selection days 2 and 3 (reads of this peptide / all reads for the bait, averaged over ….
For chain 1 D16Q, the screen value was 0.00121 average fractional NGS count over selection days 2 and 3 (reads of this peptide / all reads for the bait, averaged over ….
In the case of chain 1 D16F, the screen value is reported as 0.00025 average fractional NGS count over selection days 2 and 3 (reads of this peptide / all reads for the bait, averaged over ….
In the case of chain 1 D16A, the screen value is reported as 0.00219 average fractional NGS count over selection days 2 and 3 (reads of this peptide / all reads for the bait, averaged over ….
With chain 1 Y3M the screen value was 0.000836 average fractional NGS count over selection days 2 and 3 (reads of this peptide / all reads for the bait, averaged over ….
chain 1 Y3Q was tested, and the screen value was 0.000114 average fractional NGS count over selection days 2 and 3 (reads of this peptide / all reads for the bait, averaged over ….
With chain 1 Y3W the screen value was 0.00058 average fractional NGS count over selection days 2 and 3 (reads of this peptide / all reads for the bait, averaged over ….
In the case of chain 1 Y3A, the screen value is reported as 0.00043 average fractional NGS count over selection days 2 and 3 (reads of this peptide / all reads for the bait, averaged over ….
In the case of chain 1 A15I, the screen value is reported as 0.000279 average fractional NGS count over selection days 2 and 3 (reads of this peptide / all reads for the bait, averaged over ….
For chain 1 A15S, the screen value was 0.000672 average fractional NGS count over selection days 2 and 3 (reads of this peptide / all reads for the bait, averaged over ….
In the case of chain 1 A15E, the screen value is reported as 0.000423 average fractional NGS count over selection days 2 and 3 (reads of this peptide / all reads for the bait, averaged over ….
In the case of chain 1 A15Q, the screen value is reported as 0.000281 average fractional NGS count over selection days 2 and 3 (reads of this peptide / all reads for the bait, averaged over ….
In the case of chain 1 A15F, the screen value is reported as 0.000658 average fractional NGS count over selection days 2 and 3 (reads of this peptide / all reads for the bait, averaged over ….
chain 1 A15M was tested, and the screen value was 0.00211 average fractional NGS count over selection days 2 and 3 (reads of this peptide / all reads for the bait, averaged over ….
With chain 1 A15W the screen value was 0.000559 average fractional NGS count over selection days 2 and 3 (reads of this peptide / all reads for the bait, averaged over ….
In the case of chain 1 A15V, the screen value is reported as 0.00273 average fractional NGS count over selection days 2 and 3 (reads of this peptide / all reads for the bait, averaged over ….
chain 1 A15H was tested, and the screen value was 0.00152 average fractional NGS count over selection days 2 and 3 (reads of this peptide / all reads for the bait, averaged over ….
